Measured values from a protein production outcome set (Wang et al. 2014).

Test: label from the status in PepcDB records

Question: For “MRKRARIIYNPTSGKELFKRVLPDALIKLEKAGYETSAYATEKIGDATFEAERALESEYDLLIAAGGDGTLNEVVNGIAEQPNRPKLGVIPMGTVNDFGRALHLPSDIMGAIDVIIDGHTTKVDIGKMNNRYFINLAAGGKLTQVSYETPSKLKSIVGPFAYYIKGFEMLPQMKAVDVRIEYDDNIFQGEALLFLLGLTNSMAGFEKLVPDAKLDDGYFTLIIVEKANLAELGHIMTLASRGEHTKHPKVIYAKAKSINISSFTDMQLNVDGEYGGKLPANFLNLEQHIEIFTPKDVFNEELLENDTITDITPDKQ”, which protein production is on record?
Answer: The protein production was “not failed”.

Question: With “MRKRGIMSKRLLAVLCMASVTTSLFSFRGLEVKASPNVPYDQKESLAPLGEVYSIETLLNWTPESDPDAKYNRASIELQDRFMGDIVNENANPEAKIMNVALTNPYVDRAPSQGSDSMDAYVFSYWQYVNSYVYWGGSSRGIFALPTPDVVDNAHKNGVPVLATIGFPWGPGEGYVEQVRAFLQKDNNGNFPVADKMIEIAEYYGFDGYFFNQESYGCVKDDADRMVEMLEYIKKKAPNMVIGWYDSMTVDGNVKWQDALNDKNAAFFQNGENRTTDEFFLNYNWTPEKIETTVNTAKSLGRSPFDVYAGLDVQQNAYNTPFNDDYLLDENGKLRLSLAMYTPNSTFSMAKDVYDFYKHDQKFWVGPTGDPSKSDTEQDWTGLANYVPDRSAINDLPFVTNFNLGHGEDYYIDGSLSRDEEWNNRAMQEYLPTWRWIVESNGSKLTPDFDFKTAYNGGSSLKVEGKLEAANPNHIKLYSTDLNIENNSTELSIVYKTESAPNMKVGLCFGENYDEENFTFFDVNKNSNGEWTEVKIPLGDHVGKTISAISLKFESGQDVENFKINVGQISIEETAENNKGLKNSDVILEETMVHNSNSAEARIYWNGLESGNEDDLAFYEIYRIKPDGSRELMGATPNDAYYVQEFERYGEEMEFDIEVVPVDVNYNRGEGKRVTFNWGIPHDATQIPDKKVYENLALYKSVQTSAEGAAEPGLKAVDGKVDNNSKWCAAGAKDGWLTIDLGEPKNIQRWVVKHAEAGGEAKDMNTKDFALEVSYDGGQTYQEVDVVTGNEDAITDRNLENPIVAQHLRLRIDNSGSSPWAAIRIYEFQLYEETFTDQTTEIPMRFVNAKNNKGANDSVLFTRGKEGQTVNLYKGLNDETPFATATIDSNGEAKFEGLDFGEDGGRVYYGTVEEGKRESLRMSAAFEGENWEYSKVPERFELTPYKAPGMNGENHNYGTLKINDLEAGDIVSIFNDKDSIFPEKVSVPVAKGGDTAILDRISINPEGGVLTLEVKSEGKKARRIEVPYSGFGEIEMKIESEAPTNLRTVDVQKKSVSLAWDSPENTYGLEGYIIYKDNKKVGEVSADETEFTVGKLNRHTIYNFKVAAKYSNGEISKRDTITVRTAR” as the sequence, how does the protein production read?
Answer: Its protein production is “failed”.

Question: For “MRKRIFWLLPDLASARRTMDDLLLARIENSHIHFVGRDGADMTGLHEANLFQTSDIVHAAEMGLMVGGGVGIVAGVVVAMFPIVSDSPQWGLVGVLAVLGAVFGAWAASMIGSSAPNSRLRSFEKDIEAGKLLLMVDVPRGRVEEVEALLQKAHPEASFAGLDPAVPAFP”, which protein production is on record?
Answer: The protein production was “failed”.

Question: Which protein production does the source give for “MRLDKFIAQQLGVSRAIAGREIRGNRVTVDGEIVRNAAFKLLPEHDVAYDGNPLAQQHGPRYFMLNKPQGYVCSTDDPDHPTVLYFLDEPVAWKLHAAGRLDIDTTGLVLMTDDGQWSHRITSPRHHCEKTYLVTLESPVADDTAEQFAKGVQLHNEKDLTKPAVLEVITPTQVRLTISEGRYHQVKRMFAAVGNHVVELHRERIGGITLDADLAPGEYRPLTEEEIASVV” here?
Answer: The protein production was “not failed”.

Question: For “MRLFFSLLILLSFFARATEPVQVFTDDLGRKVTVPAHPKRIVSLHDLDITIPLIELGVPPVASHGRTRPDGSHFIRSGALLTGVDFDNSSIAFIGTADIDIEAIVAAKPDLIITEPTRNTPIERLEKIAPTVSIDHLKGGAPEIYRKLAELTGTQSQLAILERRYQAQINALKATLDSQKITVSVIQANQGKINVMHSYHSLGRVLRDAGFRFPPLIESIPEGGRMDVSAERLPELDADFVFATWRGDTGGKPQDELAAMEKVMPGWCQFLTACRSGRYVLISREEAISNSFASLGLMAAQIQSQIAGRPLPEAK”, which protein production is on record?
Answer: The protein production was “not failed”.

Question: For “MRLLACWTDVHHRHAPMTAHDLPRQAFLRGAVAILPLSLAVAPWGLLAGSMAIEANLTPAEGQGLSAIVFAGAAQLVAIGMLKGGAGFFSIIFTTLLLTSQHLLYGMSLRPVLSPLPGRWRIGLGFLLTDEFFALASQHDRRNFNRWYALGVGLTFYIAWNLFTLAGILLGRSIPGLEHLGLDFSIAATFIALVAPLVRNVPTLVCVATSLFCSVLFSHWQWSSALVLAGLAGMAAGFICNKLYREAPWSGQ”, which protein production is on record?
Answer: The protein production was “failed”.

Question: Which protein production does the source give for “MRLLAVFVSSRLSPEDPLYARWVRYGEVLAEEGFGLACGGYQGGMEALARGVKAKGGLVVGVTAPAFFPERRGPNPFVDLELPAATLPQRIGRLLDLGAGYLALPGGVGTLAELVLAWNLLYLRRGVGRPLAVDPYWLGLLKAHGEIAPEDVGLLRVVADEEDLRRFLRSL” here?
Answer: Its protein production is “not failed”.

Question: For “MRLLVAFAVIYFISISPVCAENTASTINIPTPAIESPLASKSLLLDISLIGQEKLVTVGQHGHILLSNDGKKWQQANVPVQVTLTNVFFLNEQLGWAVGHDATILHSQDGGLNWQVQQYLPLLEKPLFDIYFKNPQQGIAVGAYGQVFRTNDGGSTWQNEFHQEILLADDVEYLNELKAEDEAAYLDEITFILPHFNRLVQDGGSLFLLGETGLLAKSDDFGLTWQQFDNFYQGSFFSLARTKTGNVLVAGLRGHVFRSLNHGSQWDEVPTNTTALLNDIVFANDERIFILGNNGMLLISTDDGESFSKIPQQDGKTLIAGVWFKGQLIAVSDVGIKVVDLSQE”, which protein production is on record?
Answer: Its protein production is “failed”.

Question: With “MRLNKLFILYSLFGILMASCIKDEAPNAEADITGISFEEDVLASARFNLNPSYNDNLQAYPILVKVKEGTPLNKLSPLFELTPGATISPESGSEHDFSDGKRVKYTVTSENKAWQRVYSIGVREQSVSDIPNEFHFEDIRLINGINPKYKYQEFYEEQDGLELTWASGNEGFNWAASSSATENYPTSQYDNGKNGKCAKLETRLTGSLGAMVGMPIAAGNLFIGEFDMTNALTSPLKATHFGTPFCYKPSRLKGWYKYKAGERFYENGGYTDRKDVMNIYAIFYEGESYNEAGEVTEVILDGNLPNQNYEHPSMVALALISNPHETDDWEAFDIPFDYQRYGKEIDETKLAKGKYKLSIIFASSKNGATFEGAPGSTLLVDDVELIFE” as the sequence, how does the protein production read?
Answer: Its protein production is “failed”.

Question: With “MRLNYPSKVSEEGFQVMVLSLSILKKSFNDFLSTRMLLINLGPILLSLAFFGAVFYYNGGNIVGYCQTLLPQSLNDYSHSQGFFAGVFAWVFKALVYFLIFWIVILLSLVINIFASIFYTPLVVSYLHQKYYPHVVLEEFGSILFSIKYFLKSLAFMLLFLAVLTPFYFIPFIGVFGVFFSIVPHFLFFKNTMSLDIASMIFNHQSYQNLLKQHRLKHYRFSFFCYLFSLIPFFNFFATLLQTLMLTHYFFIFKEKEC” as the sequence, how does the protein production read?
Answer: Its protein production is “not failed”.

Question: Which protein production does the source give for “MRLPFAITRFAAGAALAALGTSAFANCVANPPTQSNASFPASLAGKLAYHSYVSYGDGTSQLFIYDFAARTLTQVSKSAWGIQDPMNAVFSPDGKWLAFMGITNNAWNVFLWQVGSSSQPVNMTNSTGQTRNEDPKFSADGKSLFFKQSGDVMQATLSYTSTGPIFTSVVDITNTAPATENSMPFATPDGSAVYFATGTGAGMGLYKETIATHATFAFDTPAGLQTYYPIVRADGTVFYARWKDAASQADQIYTKVNPGDTPNQLSINDCNSNNSDPAPVNGTNYVFFSSTTAGGYQLYLGDVSTGQRWSLSQFGVNSDTTKAKLGSNYYAGGTTASTSGQTTRLLSQGMPASASSSYNSSLGAANAFDGDTANTRWDSIEGSAAGTQWLMVDLGTVRTINGVDLYWDAGAKTYAIQTSSDGVNWTSIYSTSNGIAYGHAVLSNLRGSGRYVRMYGTQRATQWGYSIDEMQVWGY” here?
Answer: The protein production was “failed”.

Question: With “MRLPGSGYSYTVIQSKNNYSQKSSFGISFVILSRGTKIFREDLFEFLSNFDFIREIISIEKQSNRSSLQFISESYGKLKFILLSDDLNSGEKVNLAMKESSCDFVFVLQSDMYLLNPFWIPNIFDEIVKKNVLLVGGEFFDKEEEMIPSIFLPSIDKKQKFKVILVNSEKDYEKTLITMDYCGLYSKEKFLQLGGFDARIQNEYFQRIDFGLRAIYFGEHVYIYRKLRIQYTALNSPENLTKSKSFLIFLLKNYVPIFVGNGVVFSFLRFCKICLKYKINPFLFQKEFKEIKGEITKNSLRFKGDLKSAIELWENDIID” as the sequence, how does the protein production read?
Answer: Its protein production is “failed”.

Question: For “MRLRNWPRWQRWLNRRIPPASSVELNQRRVFILPTRQGGAFGLALLVMLLAAINYQNSLAYGLTFLLLSLGVVTILHTYRNLAGLRLTALGADPVFAGERAGFRVRLESPRRARQAIAVGWPERPLEYADLAGDAAAEVLLFHPTERRGWLRPGRLRVESRFPLGLLVAWSWVDLRQQALVYPRPQAGEPLLAPGAEDAEDQGRALASAGVDDYQGLRAYQPGDSRRRLHWKAFSRGQGLLVKDFAALGGEDLWLEFERLGGDLESRLGRLCHAVLELSARQQPYGLALPGTRLQPASGEAQREACLRALALFGAAR”, which protein production is on record?
Answer: The protein production was “failed”.

Question: Which protein production does the source give for “MRLSILRARSTGSGQASPRASRTRGARSAAAGGSWVVIFLPLHCGTRSLTMPRRARNAQTASSCSLERPNEWKEPPPVSGFEVTIVDAESVIAWVKAGKVTVFDVREPEEFAAAHIEGAIPNPLSRFDASLIPTDSPVPVVLHCRSGVRCGHAADRLRASGFQGKINRMAGGIIAWQAAGGPVVSG” here?
Answer: Its protein production is “failed”.

Question: For “MRLSKEFIGLGIITASLIFGSSLPDIYKGIVILIVAGCLWFFELLPLPVTSLAIPIMAVFLGIFNLKEALTYFAHPIIFLFLGGFMLAQALKNHNLDKFIAYKLLNYGKDFKTTCFLMFLSAYFLSMWISNTSATLILLPIALGLLHKKTGKLRDFLLLGVAYSASIGGIATIIGSPPNAIASSYLDYGFFSWFKVGFPISLLLFLICTLTLYIYFKKWIPKEDIAIQARMELSRNAYKLLVIFVLIASLWIISDYLSEIFNVQYFDSVIAIFAIILLFVFNLVEVNDFKKIDWGTLILFGGALCLGGVIVKSGANTFLSEKLIAILGNLTPIVLLFLVVTITIILTNFISNTGLTGIIVPILFGVSLGIPKEILILAVGMSASCSFILPVGTPPNAIVYSEGVKKEEMMKIGMILSILSAAVITLYSILYL”, which protein production is on record?
Answer: The protein production was “failed”.

Question: For “MRMENQKDLQENYLKVLERVELGSRVSGTVVNIMKDYVLVDIGYKSEGFIKIEEFENVPQVGDRLEAIVVRIGGELGLILSVEKLNSLNFQDKVYEYIQNKKIIKGKVLVELPNGYKIQINENVSGFMPFYLSSKSKDEKLKRGSVVEFYILEASEADGLRLILDRRTLEKERDLAKRIELVSSYNEEDVVDGVVERITEYGAIVKIKNFVTGILHKRNIAFNQVENVEDFVRVGDKLKLKIIKINPQTGKMELSLKALKANPWDSVDVKYKIDSIVKGKVVKILPFGAVIELDSELSGFLHISNFSWIRVVKSPQELIKLGQIVEVKILEIDKENQKISLGIKQINENPWERLTEKYPIGRVVQGVVTNITKTGAFVNIEEGIDAYVSKFDISWLEEIDPEEYFKIGDLVNGKVLEVDKRKRNVRLGIKQLEESPWEDFSKSYKKGDTIEVEIVEKKSKGFQVRVYNKIMGFISKIQLGDTKESSLETFEKLNVGDKLKVVITSIDSKDKSVLLSYREYENQRSREEISSYLFKGNDEESYKPFENLLKRDELEHHHHHH”, which protein production is on record?
Answer: Its protein production is “not failed”.

Question: Which protein production does the source give for “MRMIGRRRALEHRITLIAVIVILQLAATLFFLVDVTGDLRADGSGVHIAAEAGAAIALLVGVVFGAAQVRWLVLRARQDEAAVAAAKGALADLARLRFSDWKLTAAEADVALFALKGCDVAEIAALRGAAAGTVRAQLARVYAKAGVNSQSALMALFLEELVEAGEG” here?
Answer: Its protein production is “failed”.
